Data taken from article PMC3024946, “Hydroxyproline-containing collagen analogs trigger the release and activation of collagen-sequestered proMMP-2 by competition with prodomain-derived peptide P33-42” (Fibrogenesis & Tissue Repair, 2011).

B1: ProMMP-9: 92-kDa latent proform of human recombinant MMP-9 (protein)
chain: APRQRQSTLVLFPGDLRTNLTDRQLAEEYLYRYGYTRVAEMRGESKSLGPALLLLQKQLSLPETGELDSATLKAMRTPRCGVPDLGRFQTFEGDLKWHHHNITYWIQNYSEDLPRAVIDDAFARAFALWSAVTPLTFTRVYSRDADIVIQFGVAEHGDGYPFDGKDGLLAHAFPPGPGIQGDAHFDDDELWSLGKGVVVPTRFGNADGAACHFPFIFEGRSYSACTTDGRSDGLPWCSTTANYDTDDRFGFCPSERLYTQDGNADGKPCQFPFIFQGQSYSACTTDGRSDGYRWCATTANYDRDKLFGFCPTRADSTVMGGNSAGELCVFPFTFLGKEYSTCTSEGRGDGRLWCATTSNFDSDKKWGFCPDQGYSLFLVAAHEFGHALGLDHSSVPEALMYPMYRFTEGPPLHKDDVNGIRHLYGPRPEPEPRPPTTTTPQPTAPPTVCPTGPPTVHPSERPTAGPTGPPSAGPTGPPTAGPSTATTVPLSPVDDACNVNIFDAIAEIGNQLYLFKDGKYWRFSEGRGSRPQGPFLIADKWPALPRKLDSVFEERLSKKLFFFSGRQVWVYTGASVLGPRRLDKLGLGADVAQVTGALRSGRGKMLLFSGRRLWRFDVKAQMVDPRSASEVDRMFPGVPLDTHDVFQYREKAYFCQDRFYWRVSSRSELNQVDQVGYVTYDILQCPED
modifications: [125I]-Bolton-Hunter label in the solid-phase assays (dot blot, microwells); no label told for SPR and immunohistochemistry
B2: ProMMP-2: 72-kDa latent proform of human recombinant MMP-2 (protein)
chain: APSPIIKFPGDVAPKTDKELAVQYLNTFYGCPKESCNLFVLKDTLKKMQKFFGLPQTGDLDQNTIETMRKPRCGNPDVANYNFFPRKPKWDKNQITYRIIGYTPDLDPETVDDAFARAFQVWSDVTPLRFSRIHDGEADIMINFGRWEHGDGYPFDGKDGLLAHAFAPGTGVGGDSHFDDDELWTLGEGQVVRVKYGNADGEYCKFPFLFNGKEYNSCTDTGRSDGFLWCSTTYNFEKDGKYGFCPHEALFTMGGNAEGQPCKFPFRFQGTSYDSCTTEGRTDGYRWCGTTEDYDRDKKYGFCPETAMSTVGGNSEGAPCVFPFTFLGNKYESCTSAGRSDGKMWCATTANYDDDRKWGFCPDQGYSLFLVAAHEFGHAMGLEHSQDPGALMAPIYTYTKNFRLSQDDIKGIQELYGASPDIDLGTGPTPTLGPVTPEICKQDIVFDGIAQIRGEIFFFKDRFIWRTVTPRDKPMGPLLVATFWPELPEKIDAVYEAPQEEKAVFFAGNEYWIYSASTLERGYPKPLTSLGLPPDVQRVDAAFNWSKNKKTYIFAGDKFWRYNEVKKKMDPGFPKLIADAWNAIPDNLDAVVDLQGGGHSYFFKGAYYLKLENQSLKSVKFGSIKSDWLGC
modifications: [125I]-Bolton-Hunter label in the solid-phase assays (dot blot, microwells); Cy2 label in the tissue release experiment; no label told for SPR and immunohistochemistry

Legend:
collagen type I (CI) [1] = assay: SPR binding of MMPs to immobilized CI, nonactivating buffer; design: species or system human; conditions: for Off rate / Kd: without (GPO)10, MMP 100 nM, PBS, 0.05% Tween 20, 25°C; for Off rate: mean from at least three experiments; for Kd: mean ± SD, at least three experiments
Protocol: (§1) Sensor chip preparations and SPR measurements were performed using a BiacoreX device and the Bia-evaluation software (version 3.2; Biacore, Uppsala, Sweden). The pepsin-resistant triple-helical part of human fibrillar CI (100 μg/ml) in 10 mM acetate coupling buffer, pH 4.8, was immobilized to a dextran matrix-sensor chip at a flow rate of 5 μl/min, resulting in 5,500 resonance units from CI covalently linked via its primary amino groups. The control flow cell was prepared using the coupling buffer without CI. Surfaces were activated and blocked as described previously. Immediately after thawing, pro- and actMMP-2 and pro- and actMMP-9 were diluted to 100 to 250 nM in MMP activity buffer or in PBS and 0.05% (vol/vol) Tween 20. For SPR measurements, flow rates were 10 μl/min at 25°C, and equilibrium was typically reached after 30 to 60 s. The effects of (GPO)10, GAP, (POG)5, (GPP)10 and P33-42 on MMP-2 and MMP-9 binding to CI and their enzymatic activity were determined by adding the binding competitors to the (pro- and act)MMP-2 and MMP-9 solution in 10- to 150-fold molar excesses. Effects independent of MMP-2 and MMP-9 activity were monitored in the presence of Ro 28-2653 (1 μM) during SPR analysis. The gelatinase inhibitor Ro 28-2653 was a generous gift from H.-W. Krell (Roche, Grenzach-Wyhlen, Germany). Sensor surfaces were regenerated with 10 mM glycine, pH 2.3, for 1 min between runs, and sensor chips were used up to 25 times. Kinetic parameters were analyzed using the 1:1 binding model with drifting baseline and subtraction of the control flow cell binding from sensorgrams obtained with immobilized CI. Binding constants (Kd) were calculated from the association (ka) and dissociation rates (kd) obtained from individual binding curves at different concentrations. Individual drifts of the resonance signal were fitted locally, and χ^2 values of 0.2% to 1.0% of the maximum resonance value were considered good fits.

[2] = In situ binding of MMPs to fibrotic liver sections; design: species or system human; conditions: immunohistochemistry; 25 ng MMP, 30 min
Protocol: Human cirrhotic liver cryostat sections (5 μm) were air-dried and fixed in ice-cold acetone for 10 min. Tissue sections were rehydrated with PBS and incubated with 25 ng/50 μl of the respective proMMP and actMMP for 30 min or were left untreated. After thorough washing with PBS, antibodies specific for human MMP-9 (clone MAB911; R&D Systems, Minneapolis, MN, USA) and human MMP-2 (clone 75-7F7; Oncogene, Cambridge, MA, USA) were applied, and primary antibody binding was detected using the alkaline phosphatase-antialkaline phosphatase detection system (Dako, Hamburg, Germany). An irrelevant primary mouse antibody served as control. Nuclei were counterstained with Hemalaun, and slides were examined by standard light microscopy.

ProMMP-2 = assay: DQ-gelatine degradation assay with MMP-2; type: biochemical, human; conditions: MMP alone; 10 ng; 5 h at 25°C; plateau (actMMP-2) or baseline (proMMP-2) level
collagen type I (CI) [3] = assay: SPR binding of MMP-2 to CI, MMP activity buffer with Ro 28-2653; design: species or system human
Protocol: as §1

| Molecule | Off rate (collagen type I (CI) [1]) | Kd (collagen type I (CI) [1]) | binding to liver sections [2] | DQ-gelatine conversion (ProMMP-2) | reduction of binding upon MMP activation (collagen type I (CI) [1]; nonactivating buffer) | reduction of binding upon MMP activation (collagen type I (CI) [3]; MMP activity buffer with Ro 28-2653) | binding enhancement to CI (collagen type I (CI) [3]; MMP activity buffer with Ro 28-2653 vs nonactivating buffer) | Kd (collagen type I (CI) [3]; no competitor, MMP-2 100 nM, MMP activity buffer, 1 μM Ro 28-2653, 25°C, mean ± SD, at least three experiments) |
| --- | --- | --- | --- | --- | --- | --- | --- | --- |
| B1 | 0.32 s⁻¹ | 120 ± 90 nM | preferential staining of fibrotic septa | – | – | – | – | – |
| B2 | ~0.48 s⁻¹ | 70 ± 30 nM | preferential staining of fibrotic septa | about 200 relative fluorescence units | 2.5 -fold | 35 -fold | 10 -fold | 7.1 ± 0.1 nM |
